Article PMC5118228 (EJNMMI Research, 2016)

Experiment: in vivo
Settings: male, athymic nu/nu, mouse, iv, total radioactivity
[1] = 0.03 nmol, uptake in Red blood cell
[2] = 0.1 nmol, uptake in Red blood cell

Structure (SMILES): C[C@@H](O)[C@H](NC(=O)[C@@H]1CSSC[C@H](NC(=O)[C@@H](Cc2ccccc2)NC(=O)CN2CCN(CC(=O)O)CCN(CC(=O)O)CCN(CC(=O)O)CC2)C(=O)N[C@@H](Cc2ccc(O)cc2)C(=O)N[C@H](Cc2c[nH]c3ccccc23)C(=O)N[C@@H](CCCCN)C(=O)N[C@@H]([C@@H](C)O)C(=O)N1)C(=O)O [^111In-DOTATATE, metal not drawn]
- tissue uptake at 10 min (0.03 nmol, uptake in Adrenals): 3.4 ± 2.3 %ID/g
- tissue uptake at 0.5 h (0.03 nmol, uptake in Adrenals): 4.7 ± 4.4 %ID/g
- tissue uptake at 1 h (0.03 nmol, uptake in Adrenals): 4.6 ± 5.6 %ID/g
- tissue uptake at 0.05 h (0.03 nmol, uptake in Kidney): 19.2 ± 8.4 %ID/g
- tissue uptake at 10 min (0.03 nmol, uptake in Kidney): 16 ± 4.1 %ID/g
- tissue uptake at 0.5 h (0.03 nmol, uptake in Kidney): 14 ± 4.1 %ID/g
- tissue uptake at 1 h (0.03 nmol, uptake in Kidney): 12.3 ± 3.7 %ID/g
- tissue uptake at 0.05 h (0.03 nmol, uptake in Muscles): 1.2 ± 0.7 %ID/g
- tissue uptake at 10 min (0.03 nmol, uptake in Muscles): 0.9 ± 0.3 %ID/g
- tissue uptake at 0.5 h (0.03 nmol, uptake in Muscles): 0.3 ± 0.1 %ID/g
- tissue uptake at 1 h (0.03 nmol, uptake in Muscles): 0.07 %ID/g
- tissue uptake at 0.05 h (0.03 nmol, uptake in Pancreas): 6 ± 1.5 %ID/g
- tissue uptake at 10 min (0.03 nmol, uptake in Pancreas): 1.6 ± 1.4 %ID/g
- tissue uptake at 0.5 h (0.03 nmol, uptake in Pancreas): 4.7 ± 2.7 %ID/g
- tissue uptake at 1 h (0.03 nmol, uptake in Pancreas): 9.2 ± 1.9 %ID/g
- tissue uptake at 0.05 h (0.03 nmol, uptake in Pituitary): 1 ± 1.7 %ID/g
- tissue uptake at 10 min (0.03 nmol, uptake in Pituitary): 0.2 ± 0.2 %ID/g
- tissue uptake at 0.5 h (0.03 nmol, uptake in Pituitary): 0.5 ± 0.8 %ID/g
- tissue uptake at 1 h (0.03 nmol, uptake in Pituitary): < 0.05 %ID/g
- tissue uptake at 0.05 h (0.03 nmol, uptake in Plasma): 13.3 ± 1.6 %ID/g
- tissue uptake at 0.5 h (0.03 nmol, uptake in Plasma): 3.2 ± 1 %ID/g
- tissue uptake at 1 h (0.03 nmol, uptake in Plasma): 0.8 ± 0.1 %ID/g
- tissue uptake at 0.05 h [1]: 3.5 ± 2.5 %ID/g
- tissue uptake at 0.5 h [1]: 0.6 ± 0.2 %ID/g
- tissue uptake at 1 h [1]: 0.3 ± 0.08 %ID/g
- tissue uptake at 0.05 h (0.03 nmol, uptake in Stomach): 5.6 ± 0.7 %ID/g
- tissue uptake at 10 min (0.03 nmol, uptake in Stomach): 7.9 ± 2.2 %ID/g
- tissue uptake at 0.5 h (0.03 nmol, uptake in Stomach): 8.1 ± 1.3 %ID/g
- tissue uptake at 1 h (0.03 nmol, uptake in Stomach): 7.6 ± 1.1 %ID/g
- tissue uptake at 0.05 h (0.03 nmol, uptake in Tumor): 6.9 ± 3.6 %ID/g
- tissue uptake at 10 min (0.03 nmol, uptake in Tumor): 10.7 ± 2.5 %ID/g
- tissue uptake at 0.5 h (0.03 nmol, uptake in Tumor): 15.1 ± 7.5 %ID/g
- tissue uptake at 1 h (0.03 nmol, uptake in Tumor): 12.8 ± 6.7 %ID/g
- tissue uptake at 1 h (0.1 nmol, uptake in Adrenals): 1.3 ± 0.2 %ID/g
- tissue uptake at 0.05 h (0.1 nmol, uptake in Kidney): 21.6 ± 3.9 %ID/g
- tissue uptake at 10 min (0.1 nmol, uptake in Kidney): 15.6 ± 3.1 %ID/g
- tissue uptake at 0.5 h (0.1 nmol, uptake in Kidney): 16.1 ± 5.5 %ID/g
- tissue uptake at 1 h (0.1 nmol, uptake in Kidney): 16.7 ± 8.6 %ID/g
- tissue uptake at 0.05 h (0.1 nmol, uptake in Muscles): 1.5 ± 0.6 %ID/g
- tissue uptake at 10 min (0.1 nmol, uptake in Muscles): 0.7 ± 0.2 %ID/g
- tissue uptake at 0.5 h (0.1 nmol, uptake in Muscles): 0.4 ± 0.4 %ID/g
- tissue uptake at 1 h (0.1 nmol, uptake in Muscles): 0.3 ± 0.4 %ID/g
- tissue uptake at 0.05 h (0.1 nmol, uptake in Pancreas): 11.9 ± 4 %ID/g
- tissue uptake at 10 min (0.1 nmol, uptake in Pancreas): 9.9 ± 4.2 %ID/g
- tissue uptake at 0.5 h (0.1 nmol, uptake in Pancreas): 7 ± 1.4 %ID/g
- tissue uptake at 1 h (0.1 nmol, uptake in Pancreas): 4.7 ± 0.5 %ID/g
- tissue uptake at 0.05 h (0.1 nmol, uptake in Pituitary): 0.3 ± 0.2 %ID/g
- tissue uptake at 10 min (0.1 nmol, uptake in Pituitary): 0.2 ± 0.09 %ID/g
- tissue uptake at 0.5 h (0.1 nmol, uptake in Pituitary): 0.1 ± 0.2 %ID/g
- tissue uptake at 1 h (0.1 nmol, uptake in Pituitary): < 0.05 %ID/g
- tissue uptake at 0.05 h (0.1 nmol, uptake in Plasma): 13.2 ± 1.7 %ID/g
- tissue uptake at 10 min (0.1 nmol, uptake in Plasma): 8.6 ± 1.4 %ID/g
- tissue uptake at 0.5 h (0.1 nmol, uptake in Plasma): 3.4 ± 1.7 %ID/g
- tissue uptake at 1 h (0.1 nmol, uptake in Plasma): 1 ± 0.6 %ID/g
- tissue uptake at 0.05 h [2]: 5.2 ± 0.7 %ID/g
- tissue uptake at 0.5 h [2]: 0.8 ± 0.4 %ID/g
- tissue uptake at 1 h [2]: 0.2 ± 0.1 %ID/g
- tissue uptake at 0.05 h (0.1 nmol, uptake in Stomach): 4.4 ± 1.1 %ID/g
- tissue uptake at 10 min (0.1 nmol, uptake in Stomach): 5.2 ± 1.1 %ID/g
- tissue uptake at 0.5 h (0.1 nmol, uptake in Stomach): 6.3 ± 2 %ID/g
- tissue uptake at 1 h (0.1 nmol, uptake in Stomach): 6 ± 1.8 %ID/g
- tissue uptake at 10 min (0.1 nmol, uptake in Tumor): 11.8 ± 3.6 %ID/g
- tissue uptake at 1 h (0.1 nmol, uptake in Tumor): 9.9 ± 2.6 %ID/g
- tissue uptake at 0.05 h (0.3 nmol, uptake in Adrenals): 2.3 ± 0.6 %ID/g
- tissue uptake at 10 min (0.3 nmol, uptake in Adrenals): 1.2 ± 0.4 %ID/g
- tissue uptake at 0.5 h (0.3 nmol, uptake in Adrenals): 1 ± 0.1 %ID/g
- tissue uptake at 1 h (0.3 nmol, uptake in Adrenals): 0.8 ± 0.3 %ID/g
- tissue uptake at 0.05 h (0.3 nmol, uptake in Kidney): 17.2 ± 5.4 %ID/g
- tissue uptake at 10 min (0.3 nmol, uptake in Kidney): 12.8 ± 2.2 %ID/g
- tissue uptake at 0.5 h (0.3 nmol, uptake in Kidney): 16.9 ± 6.3 %ID/g
- tissue uptake at 1 h (0.3 nmol, uptake in Kidney): 13.4 ± 2.8 %ID/g
- tissue uptake at 0.05 h (0.3 nmol, uptake in Muscles): 1.1 ± 0.1 %ID/g
- tissue uptake at 10 min (0.3 nmol, uptake in Muscles): 0.5 ± 0.1 %ID/g
- tissue uptake at 0.5 h (0.3 nmol, uptake in Muscles): 0.3 ± 0.1 %ID/g
- tissue uptake at 1 h (0.3 nmol, uptake in Muscles): < 0.05 %ID/g
- tissue uptake at 10 min (0.3 nmol, uptake in Pancreas): 3.5 ± 0.3 %ID/g
- tissue uptake at 0.5 h (0.3 nmol, uptake in Pancreas): 3.2 ± 0.4 %ID/g
- tissue uptake at 1 h (0.3 nmol, uptake in Pancreas): 3 ± 1 %ID/g
